Results from patent publication US20210147486A1 (VIB VZW, published 2021).

Tests used:
[1] = molecular target: T1, CsgG Y51A/F56I/N91R/K94Q/R97W-del(V105-I107) pore containing the C terminal strep tag (Escherichia coli, UniProt P0AEA2 16-277); assay: pore 5; complex made by incubating pore and peptide; DNA translocation, signal:noise
T1 construct: F561 read as F56I; also called Y51A/F561/N91R/K94Q/R97W-del(V105-I107) (so in the source); not shown: C-terminal Strep tag
T1 chain: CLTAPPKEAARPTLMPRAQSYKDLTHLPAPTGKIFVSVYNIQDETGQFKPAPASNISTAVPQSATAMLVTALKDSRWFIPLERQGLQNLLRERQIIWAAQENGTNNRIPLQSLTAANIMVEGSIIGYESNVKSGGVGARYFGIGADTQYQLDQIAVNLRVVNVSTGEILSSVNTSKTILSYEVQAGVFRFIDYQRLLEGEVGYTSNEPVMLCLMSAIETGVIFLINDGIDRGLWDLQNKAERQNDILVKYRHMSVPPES

[2] = molecular target: T2, CsgG Y51S/N55V/F56Q/N91R/K94Q/R97W-del(V105-I107) pore containing the C terminal strep tag (Escherichia coli, UniProt P0AEA2 16-277); assay: pore 8; complex made by incubating pore and peptide; DNA translocation, signal:noise
T2 construct: not shown: C-terminal Strep tag
T2 chain: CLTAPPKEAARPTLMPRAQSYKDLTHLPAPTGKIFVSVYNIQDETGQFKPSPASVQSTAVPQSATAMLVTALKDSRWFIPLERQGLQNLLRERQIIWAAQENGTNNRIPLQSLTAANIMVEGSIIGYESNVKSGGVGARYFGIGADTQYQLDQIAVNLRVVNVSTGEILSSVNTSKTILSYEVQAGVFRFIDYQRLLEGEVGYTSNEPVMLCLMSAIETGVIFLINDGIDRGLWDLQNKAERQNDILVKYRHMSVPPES

[3] = molecular target: T3, CsgG Y51A/F56Q/N91R/K94Q/R97W-del(V105-I107) pore containing the C terminal strep tag (Escherichia coli, UniProt P0AEA2 16-277); assay: pore 1; complex made by incubating pore and peptide; DNA translocation, signal:noise
T3 construct: not shown: C-terminal Strep tag
T3 chain: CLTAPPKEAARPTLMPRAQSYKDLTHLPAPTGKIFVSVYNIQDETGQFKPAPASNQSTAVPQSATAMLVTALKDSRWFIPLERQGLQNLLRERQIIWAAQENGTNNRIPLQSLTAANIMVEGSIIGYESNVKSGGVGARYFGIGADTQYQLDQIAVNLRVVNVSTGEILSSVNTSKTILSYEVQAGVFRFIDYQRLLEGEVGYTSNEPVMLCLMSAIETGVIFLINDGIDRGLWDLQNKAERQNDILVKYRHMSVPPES

[4] = molecular target: T4, CsgG Y51T/N55V/F56Q/N91R/K94Q/R97W-del(V105-I107) pore containing the C terminal strep tag (Escherichia coli, UniProt P0AEA2 16-277); assay: pore 9; complex made by incubating pore and peptide; DNA translocation, signal:noise
T4 construct: not shown: C-terminal Strep tag
T4 chain: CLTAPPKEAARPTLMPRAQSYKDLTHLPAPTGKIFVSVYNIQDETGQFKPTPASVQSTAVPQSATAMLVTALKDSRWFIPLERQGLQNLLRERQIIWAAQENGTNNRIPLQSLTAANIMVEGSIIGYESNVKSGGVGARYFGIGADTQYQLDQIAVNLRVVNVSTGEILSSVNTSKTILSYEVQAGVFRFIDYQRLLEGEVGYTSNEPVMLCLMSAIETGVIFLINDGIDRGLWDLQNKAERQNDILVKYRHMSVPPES

[5] = molecular target: T5, CsgG Y51A/F56A/N91R/K94Q/R97W-del(V105-I107) pore containing the C terminal strep tag (Escherichia coli, UniProt P0AEA2 16-277); assay: pore 4; complex made by incubating pore and peptide; DNA translocation, signal:noise
T5 construct: not shown: C-terminal Strep tag
T5 chain: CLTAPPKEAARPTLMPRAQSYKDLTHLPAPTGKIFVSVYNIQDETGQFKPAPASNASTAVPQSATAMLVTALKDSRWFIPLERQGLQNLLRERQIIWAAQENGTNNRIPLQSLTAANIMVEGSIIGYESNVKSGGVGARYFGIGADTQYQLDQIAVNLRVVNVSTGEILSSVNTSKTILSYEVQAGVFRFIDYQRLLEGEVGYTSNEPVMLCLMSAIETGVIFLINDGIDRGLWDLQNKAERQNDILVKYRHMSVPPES

[6] = molecular target: T6, CsgG Y51A/N55I/F56Q/N91R/K94Q/R97W-del(V105-I107) pore containing the C terminal strep tag (Escherichia coli, UniProt P0AEA2 16-277); assay: pore 2; complex made by incubating pore and peptide; DNA translocation, signal:noise
T6 construct: N551 read as N55I; also called Y51A/N551/F56Q/N91R/K94Q/R97W-del(V105-I107) (so in the source); not shown: C-terminal Strep tag
T6 chain: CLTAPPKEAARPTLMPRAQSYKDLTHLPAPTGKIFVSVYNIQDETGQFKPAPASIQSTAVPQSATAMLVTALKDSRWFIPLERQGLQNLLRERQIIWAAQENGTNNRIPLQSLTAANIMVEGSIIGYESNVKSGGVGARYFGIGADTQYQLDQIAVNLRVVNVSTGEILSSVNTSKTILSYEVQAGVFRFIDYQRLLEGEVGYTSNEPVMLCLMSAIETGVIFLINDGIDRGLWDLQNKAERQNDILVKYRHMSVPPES

[7] = molecular target: T7, CsgG Y51A/N55V/F56Q/N91R/K94Q/R97W-del(V105-I107) pore containing the C terminal strep tag (Escherichia coli, UniProt P0AEA2 16-277); assay: reconstitution of purified pore with synthetic peptide; SDS-PAGE after heating
T7 construct: also called Y51A/F56Q/N55V/N91R/K94Q/R97W-del(V105-I107); not shown: C-terminal Strep tag
T7 chain: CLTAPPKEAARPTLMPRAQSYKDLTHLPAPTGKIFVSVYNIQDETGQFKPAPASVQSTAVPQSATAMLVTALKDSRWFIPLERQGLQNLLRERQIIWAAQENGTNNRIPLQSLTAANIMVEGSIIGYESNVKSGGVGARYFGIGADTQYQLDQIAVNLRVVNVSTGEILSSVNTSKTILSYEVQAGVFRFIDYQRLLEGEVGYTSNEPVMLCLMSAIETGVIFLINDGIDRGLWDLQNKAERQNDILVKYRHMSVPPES

[8] = molecular target: T8, CsgG Y51A/F56V/N91R/K94Q/R97W-del(V105-I107) pore (Escherichia coli, UniProt P0AEA2 16-277); assay: pore 6; complex made by incubating pore and peptide; DNA translocation, signal:noise
T8 chain: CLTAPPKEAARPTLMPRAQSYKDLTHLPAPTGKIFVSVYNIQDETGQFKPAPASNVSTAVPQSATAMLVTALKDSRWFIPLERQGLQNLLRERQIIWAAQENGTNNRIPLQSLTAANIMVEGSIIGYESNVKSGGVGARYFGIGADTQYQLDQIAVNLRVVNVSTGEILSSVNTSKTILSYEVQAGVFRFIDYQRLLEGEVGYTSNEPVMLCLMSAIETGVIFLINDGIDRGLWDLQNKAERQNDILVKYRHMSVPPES

[9] = molecular target: T9, CsgG Y51S/N55A/F56Q/N91R/K94Q/R97W-del(V105-I107) pore (Escherichia coli, UniProt P0AEA2 16-277); assay: pore 7; complex made by incubating pore and peptide; DNA translocation, signal:noise
T9 chain: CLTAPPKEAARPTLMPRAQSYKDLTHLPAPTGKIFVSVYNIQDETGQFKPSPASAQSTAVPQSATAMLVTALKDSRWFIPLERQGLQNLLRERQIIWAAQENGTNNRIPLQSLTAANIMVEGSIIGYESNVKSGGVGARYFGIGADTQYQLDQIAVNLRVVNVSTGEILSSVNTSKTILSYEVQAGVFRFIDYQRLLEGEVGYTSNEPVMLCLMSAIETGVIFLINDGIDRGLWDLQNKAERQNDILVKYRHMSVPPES

Measured: binding result

GTMTFQFRNPNFGGNPNNGAFLLNSAQAQNSYKDP [CsgF-(1-35) synthetic peptide]
binds: all assays above
